Target: Monomeric human ACE2 (19-615), Fc tag removed by thrombin (human, UniProt Q9BYF1 19-615)
Assay: BLI

Monomeric human ACE2 (19-615), Fc tag removed by thrombin, sequence (Q9BYF1 19-615): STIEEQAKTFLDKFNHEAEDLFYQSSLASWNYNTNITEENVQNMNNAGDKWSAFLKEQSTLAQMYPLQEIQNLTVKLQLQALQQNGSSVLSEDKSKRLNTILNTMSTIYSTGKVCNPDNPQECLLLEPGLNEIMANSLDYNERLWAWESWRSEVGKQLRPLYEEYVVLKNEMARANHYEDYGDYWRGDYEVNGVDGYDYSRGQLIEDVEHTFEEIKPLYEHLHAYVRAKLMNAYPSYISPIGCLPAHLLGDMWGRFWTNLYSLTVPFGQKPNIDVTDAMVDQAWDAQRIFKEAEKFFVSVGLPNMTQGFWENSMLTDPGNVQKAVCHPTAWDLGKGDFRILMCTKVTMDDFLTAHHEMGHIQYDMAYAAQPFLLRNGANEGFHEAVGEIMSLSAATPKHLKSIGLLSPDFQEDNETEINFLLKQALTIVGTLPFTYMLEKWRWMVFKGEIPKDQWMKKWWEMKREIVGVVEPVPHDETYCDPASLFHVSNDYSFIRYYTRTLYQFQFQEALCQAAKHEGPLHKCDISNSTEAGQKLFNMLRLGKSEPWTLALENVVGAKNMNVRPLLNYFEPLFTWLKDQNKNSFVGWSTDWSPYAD

B1: SARS-CoV-1 RBD (306-575), mammalian-expressed, purified (domain or fragment)
chain: not shown
  Kd: 575 nM

Source: PMC7418704 (2020)
